Source: article PMC7793260, “MreC and MreD balance the interaction between the elongasome proteins PBP2 and RodA” (PLoS Genetics, 2020)
Positions count from the first letter of the chain named.

Key:
Conditions in all cases: partners not purified
[1] = target: T1, PBP2 (wild type), fused to mKO or to mCherry (E. coli, UniProt P0AD65 1-633); experiment: FRET or BRET; as the two-plasmid FRET, cells treated with mecillinam (2 mg/L) for two mass doublings
T1 construct: PBP2, peptidoglycan transpeptidase of the E. coli elongasome, wild type; mKO-PBP2 in all others; also called mKO-PBP2^WT; mKO-PBP2; source: E. coli LMC500, expressed from plasmid (15 uM IPTG), in fixed cells; not shown: mKO (donor construct, pWA004) or mCherry (acceptor construct), N-terminal, kept
T1 sequence (looked up): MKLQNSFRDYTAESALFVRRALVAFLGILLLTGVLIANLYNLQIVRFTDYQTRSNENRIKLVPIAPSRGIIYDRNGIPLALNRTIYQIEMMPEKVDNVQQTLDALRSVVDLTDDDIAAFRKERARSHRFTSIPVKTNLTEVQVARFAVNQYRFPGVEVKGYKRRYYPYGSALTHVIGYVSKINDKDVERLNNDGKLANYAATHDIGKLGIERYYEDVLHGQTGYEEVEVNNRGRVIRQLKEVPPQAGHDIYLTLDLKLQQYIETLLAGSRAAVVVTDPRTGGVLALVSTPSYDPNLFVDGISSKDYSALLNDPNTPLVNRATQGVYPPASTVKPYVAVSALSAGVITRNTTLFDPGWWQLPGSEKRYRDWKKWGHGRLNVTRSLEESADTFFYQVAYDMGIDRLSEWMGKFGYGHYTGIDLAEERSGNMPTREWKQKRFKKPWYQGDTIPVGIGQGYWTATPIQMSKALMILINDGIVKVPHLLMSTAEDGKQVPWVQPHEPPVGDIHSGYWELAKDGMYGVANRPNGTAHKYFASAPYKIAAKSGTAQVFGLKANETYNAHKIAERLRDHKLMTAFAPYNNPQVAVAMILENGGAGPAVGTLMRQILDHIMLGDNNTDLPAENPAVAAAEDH

mKO-PBP2^S330C [2] = target: T2, mKO-PBP2^S330C (E. coli, UniProt P0AD65 1-633, S330C); experiment: as above
T2 construct: made from pWA004 by mutagenesis PCR; source: E. coli LMC500, expressed from plasmid (15 uM IPTG), in fixed cells; not shown: mKO, N-terminal, kept
T2 sequence (looked up): T1 sequence (looked up) with S330C

mKO-^MalF37PBP2 = target: T3, mKO-^MalF37PBP2 (E. coli, UniProt P02916 1-37; P0AD65 46-633); experiment: as above
T3 construct: MalF of E. coli, the first 37 residues (cytoplasmic N-terminus and transmembrane helix), amplified from the MG1655 genome; PBP2 of E. coli excluding the first 45 residues (NT and TMH removed, periplasmic domain kept); also called PBP2 with the NT and TMH of MalF; source: E. coli LMC500, expressed from plasmid (15 uM IPTG), in fixed cells; not shown: mKO, N-terminal, kept
T3 chain (looked up): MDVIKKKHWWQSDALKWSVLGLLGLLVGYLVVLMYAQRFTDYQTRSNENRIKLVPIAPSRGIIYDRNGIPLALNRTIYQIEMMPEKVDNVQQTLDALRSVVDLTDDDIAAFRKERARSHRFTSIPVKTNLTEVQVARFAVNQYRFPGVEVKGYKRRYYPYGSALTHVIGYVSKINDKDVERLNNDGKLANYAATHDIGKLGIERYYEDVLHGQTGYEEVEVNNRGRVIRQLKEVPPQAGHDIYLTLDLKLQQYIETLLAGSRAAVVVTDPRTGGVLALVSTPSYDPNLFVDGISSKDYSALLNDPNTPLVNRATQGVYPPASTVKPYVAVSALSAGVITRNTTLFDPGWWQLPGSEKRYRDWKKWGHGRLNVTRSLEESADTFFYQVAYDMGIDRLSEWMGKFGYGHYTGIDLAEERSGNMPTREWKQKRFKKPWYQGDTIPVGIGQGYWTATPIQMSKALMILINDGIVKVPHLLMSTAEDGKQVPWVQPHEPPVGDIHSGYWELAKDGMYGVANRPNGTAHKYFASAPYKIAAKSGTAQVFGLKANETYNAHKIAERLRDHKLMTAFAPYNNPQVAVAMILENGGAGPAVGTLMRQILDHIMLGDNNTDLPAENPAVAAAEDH

mKO-PBP2^S330C [3] = target: T2, mKO-PBP2^S330C; experiment: FRET or BRET; two-plasmid spectral FRET in E. coli LMC500 cells; mCherry fusion as acceptor, mKO fusion as donor; Gb4 medium, steady state at 28 C, 15 uM IPTG for two mass doublings, FAGA-fixed; acceptor FRET efficiency (EfA) by spectral unmixing

B1: RodA (wild type), fused to mCherry or to mKO (enzyme, E. coli, UniProt P0ABG7 1-370, looked up)
chain: MTDNPNKKTFWDKVHLDPTMLLILLALLVYSALVIWSASGQDIGMMERKIGQIAMGLVIMVVMAQIPPRVYEGWAPYLYIICIILLVAVDAFGAISKGAQRWLDLGIVRFQPSEIAKIAVPLMVARFINRDVCPPSLKNTGIALVLIFMPTLLVAAQPDLGTSILVALSGLFVLFLSGLSWRLIGVAVVLVAAFIPILWFFLMHDYQRQRVMMLLDPESDPLGAGYHIIQSKIAIGSGGLRGKGWLHGTQSQLEFLPERHTDFIFAVLAEELGLVGILILLALYILLIMRGLWIAARAQTTFGRVMAGGLMLILFVYVFVNIGMVSGILPVVGVPLPLVSYGGSALIVLMAGFGIVMSIHTHRKMLSKSV
notes: RodA, peptidoglycan glycosyltransferase of the E. coli elongasome; wild-type rodA gene; mCh-RodA in all others; also called mCh-RodA; mKO-RodA; source: E. coli LMC500, expressed from plasmid (15 uM IPTG), in fixed cells; not shown: mCherry (acceptor construct, pSAV047-RodA) or mKO (donor construct, pXL56), N-terminal, kept
In the case of B1, the “EfA (acceptor FRET efficiency)” value [1] is reported as 7.9%, the “EfA (acceptor FRET efficiency)” value (mKO-PBP2^S330C [2]) is reported as 6.6% and the “EfA (acceptor FRET efficiency)” value (mKO-^MalF37PBP2) is reported as 3%. The “EfA (acceptor FRET efficiency)” value (mKO-PBP2^S330C [3]) was 10.2%.
